The results in this text go back to patent US20250122298A1 (published 2025).

Experiment [1] deals with T1, recombinant cynomolgus TfR-1 (cynomolgus, UniProt H9EXL1 89-760).
T1 chain: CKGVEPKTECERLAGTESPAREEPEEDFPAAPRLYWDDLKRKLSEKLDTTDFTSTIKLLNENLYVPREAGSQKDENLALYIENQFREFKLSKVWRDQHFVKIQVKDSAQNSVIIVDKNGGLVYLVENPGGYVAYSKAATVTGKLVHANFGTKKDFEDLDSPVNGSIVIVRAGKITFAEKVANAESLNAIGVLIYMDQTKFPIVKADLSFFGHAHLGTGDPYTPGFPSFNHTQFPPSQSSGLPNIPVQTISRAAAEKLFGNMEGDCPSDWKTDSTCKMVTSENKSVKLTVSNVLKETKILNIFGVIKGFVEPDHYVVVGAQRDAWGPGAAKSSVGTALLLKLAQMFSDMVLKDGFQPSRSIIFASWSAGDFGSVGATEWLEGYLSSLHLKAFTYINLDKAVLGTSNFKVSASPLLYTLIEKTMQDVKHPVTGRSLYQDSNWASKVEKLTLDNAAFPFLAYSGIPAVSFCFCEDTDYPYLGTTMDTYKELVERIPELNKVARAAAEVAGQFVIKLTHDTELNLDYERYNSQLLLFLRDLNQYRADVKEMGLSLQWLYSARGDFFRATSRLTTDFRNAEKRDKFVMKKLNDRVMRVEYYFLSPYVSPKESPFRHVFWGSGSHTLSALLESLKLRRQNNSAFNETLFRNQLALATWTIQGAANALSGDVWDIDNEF
Nature of the experiment: ELISA.

In another experiment the target is recombinant human TfR-1 (human, UniProt P02786 89-760). Nature of the experiment: ELISA.

B1: R2D4 (Fc fusion)
chain: ARVDQTPQTATKETGESLTINCVLRDSNCALSSTYWYRKKSGSTNEENISKGGRKYVETVESGSKSFSLKINDLTVEDSGTYRCNVVGTWCMSWRDVSGDGTVVTVNA
Turning to B1, the values for the EC50 (in experiment [1]; in the experiment with recombinant human TfR-1) were 3 nM and 4.1 nM, respectively.
